We go through three substances from patent US20240277803A1, “NME INHIBITORS AND METHODS OF USING NME INHIBITORS” (Minerva Biotechnologies Corporation, priority 2013, published 2024).

Where two headings read alike, the source gives them in different places.

One assay relates to human stem cells. Description: human stem cell culture in NME1 dimers or hexamers (FIG. 17D-G). The assay is classed as cell-based. The source says:
(§1) By contrast, NME1 is roughly half the molecular weight of NME7 (˜17 kDa) and has only one NDPK domain. NME1 acts as a growth factor that promotes growth and inhibits differentiation only when it is a dimer. At higher concentrations, NME1 can form hexamers. […] Thus, NME1, which is expressed later in embryogenesis, has the ability to turn itself off, thus limiting self-replication, while NME7 cannot. Wild type (wt) NME1 exists primarily as a hexamer at measurable concentrations. Mutant NME1 proteins, such as S120G that form stable dimer populations have been isolated from cancers and thus are continuously activating the MUC1* receptor. We made recombinant NME1-wt, and the S120G mutant. By varying refolding protocols we were able to stabilize populations that were essentially 100% hexamer or 100% dimer. In addition we isolated populations of NME1-S120G that were a mixture of dimer, tetramer and hexamer. […] In nature, when the concentration of stem cells reaches critical mass and their secretions of NME1 reaches the concentration at which they form hexamers, differentiation is induced. FIG. 18 is a cartoon depicting the mechanism, supported by experiments described herein, by which NME7 and NME1 function to promote pluripotency wherein NME1 regulates itself.

Assay [1] concerns the target T1, PSMGFR peptide of the MUC1* extracellular domain (Homo sapiens, UniProt P15941).
T1 sequence (P15941 1110-1154 limits assumed): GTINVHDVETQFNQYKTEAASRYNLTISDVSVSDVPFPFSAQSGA
Description: SPR and nanoparticle binding of NME1 multimers to PSMGFR peptide (FIG. 17). The following applies: for binding to MUC1* extracellular domain peptide (PSMGFR): SPR chip or gold nanoparticles. The arrangement: the PSMGFR peptide of the MUC1* extracellular domain is immobilized on the chip.
Text: MUC1* extra cellular domain peptide was immobilized onto gold nanoparticles.
as §1

The test system of the next assay is Human stem cells (iPS). Description: human iPS stem cell culture in NME7-AB or NM23-H1 dimers. The assay is classed as cell-based. As to conditions: 8 nM in minimal media over MN-C3 surface. The procedure: Testing recombinant NME7 for ability to maintain pluripotency and inhibit differentiation. A soluble variant of NME7, NME7-AB, was generated and purified. Human stem cells (iPS cat #SC101a-1, System Biosciences) were grown per the manufacturer's directions in 4 ng/ml bFGF over a layer of mouse fibroblast feeder cells for four passages. These source stem cells were then plated into 6-well cell culture plates (Vita™, Thermo Fisher) that had been coated with 12.5 ug/well of a monoclonal anti-MUC1* antibody, MN-C3. Cells were plated at a density of 300,000 cells per well. The base media was Minimal Stem Cell Media consisting of: 400 ml DME/F12/GlutaMAX I (Invitrogen #10565-018), 100 ml Knockout Serum Replacement (KO-SR, Invitrogen #10828-028), 5 ml 100×MEM Non-essential Amino Acid Solution (Invitrogen#11140-050) and 0.9 ml (0.1 mM) β-mercaptoethanol (55 mM stock, Invitrogen #21985-023). The base media can be any media. In a preferred embodiment, the base media is free of other growth factors and cytokines. To the base media was added either 8 nM of NME7-AB or 8 nM NM23-H1 refolded and purified as stable dimers. Media was changed every 48 hours and due to accelerated growth had to be harvested and passaged at Day 3 post-plating. FIGS. 9 and 10 document the day by day comparison of growth in NM23-H1 dimers to growth in NME7 monomers. […] Cell counts at the first harvest verified that culture in NME7 produced 1.4-times more cells than culture in NM23-H1 dimers.

The target of assay [2] is T2, MUC1* extra cellular domain peptide (Homo sapiens, UniProt P15941).
T2 sequence (P15941 with tags, fused parts or gaps): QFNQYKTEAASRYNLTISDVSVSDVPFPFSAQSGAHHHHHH
Description: gold nanoparticle binding assay, NME7 and MUC1* peptide (FIG. 7). As to conditions: protein added free in solution. The procedure: Gold nanoparticles of a diameter of 30.0 nm were coated with an NTA-SAM surface according to Thompson et al. (ACS Appl. Mater. Interfaces, 2011, 3 (8), pp 2979-2987). The NTA-SAM coated gold nanoparticles were then activated with an equal volume of 180 uM NiSO4, incubated for 10 min at room temperature, washed, and resuspended in a 10 mM phosphate buffer ([…]). The gold nanoparticles were then loaded with PSMGER N-10 peptide ([…] (SEQ ID NO:155)) at 0.5 uM final concentration, and incubated at room temperature for 10 min. Recombinant NME7-AB protein expressed and purified from E. coli was added free in solution at the concentrations indicated. When particle-immobilized proteins bind to each other, or simultaneously bind to two different peptides on two different particles, the particle solution color changes from pink/red to purple/blue. If the protein added free in solution causes particle aggregation, it is strong evidence that the free protein dimerizes the cognate peptide, since binding to a single peptide would not induce two or more particles to be brought into close proximity to each other.
The NME7-AB is added free in solution at the concentrations indicated. Solution color change from pink to purple/blue from particle aggregation indicates binding between the MUC1* peptide on the particles and NME7 free in solution. […] Particle aggregation, indicating NME7 can simultaneously bind to two peptides is observed. […] The T47D breast cancer cell line Lysate, which contains native NME7 turns noticeably purple also.

For assay [3], the target named is T1, PSMGFR peptide of the MUC1* extracellular domain. Description: ELISA of NME6 binding to PSMGFR peptide (FIG. 19). The source says: NME6 is also expressed in very early embryogenesis. NME6 is reportedly a dimer in some species such as sea sponge. NME6 must be expressed at high enough levels that it can form dimers before it can activate growth and inhibit differentiation. Thus, it is expressed at a later stage than NME7. […] We made recombinant NME6 as the wild type protein, or with a single point mutation S139G, which mimics the S120G mutation that causes NME1 to prefer dimer formation. In addition, another NME6 variant was made so that in this sensitive area, the human NME6 would look like sea sponge NME6, which reportedly exists as a dimer. These mutations are S139A plus V142D and V143A. […] In part A, NME6-wt is purified as the monomer or as a high molecular weight multimer. […] In part B, the NME6 multimers are dissociated by dilution in SDS. […] The gels of FIG. 19 D-H show expression of NME6-wt (D), NME6 with the S139G mutation that corresponds to the mutation S120G which in human NME1 increases dimer formation (E), NME6 bearing three mutations that make the human form mimic the sea sponge form that is reported to be a dimer (F), and a single chain protein linking two NME6 proteins (G,H). […] Thus an effective anti-cancer agent would be an antibody, small molecule or other agent that disrupts binding of NME6 dimers to MUC1* extra cellular domain peptide. […]
On the technique in general: An ELISA detects its analyte on a solid surface through an enzyme-linked reagent.

As for “NME1 dimers: recombinant NME1 (NM23-H1) S120G mutant refolded and purified as stable dimers”, the “pluripotent stem cell growth / differentiation” value in the assay with human stem cells was “promote pluripotent stem cell growth”. Besides, the results for the “binding to MUC1* extracellular domain peptide (PSMGFR)” value in assay [1] (listed as NM23 dimers) and in assay [1] (listed as dimer form of NME1) were “bind to the cognate receptor MUC1*” and “binds to the MUC1* extracellular domain”, respectively. The “binding to N-10 version of the PSMGFR peptide” value in assay [1] (first 10 amino acids of PSMGFR omitted) is given as “bind to the N-10 version of the PSMGFR peptide”. The “stem cell growth, pluripotency and differentiation” value with Human stem cells (iPS) is reported as “no differentiation”. In addition, in assay [2], the “binding to MUC1* peptide on nanoparticles (color change pink to purple/blue)” value is listed as “began to change almost immediately to purple”.

For “NME1 hexamers: recombinant NME1 in hexamer form”, the “pluripotent stem cell growth / differentiation” value in the assay with human stem cells was “induce differentiation”.

Take “NME6: recombinant human NME6 wild type protein”: the entries for the “binding to PSMGFR peptide (ELISA)” value in assay [3] and in assay [3] (listed as NME6 monomer) were “binds to the PSMGFR peptide” and “preferential binding”, respectively.
